Data from patent US20060177918.

What follows are substances tested on Myelin Basic Protein (Upstate USA, Inc. cat. no: 13-104).

Row | Substance | increase in fluorescence over time (real-time kinase assay)
1 | MAP kinase1/Erk1 (Upstate USA, Inc.) | greater than 4 fold increase in fluorescence over time
2 | MAP kinase2/Erk2 (Upstate USA, Inc.) | greater than 4 fold increase in fluorescence over time
3 | PKCβII (Upstate USA, Inc.) | greater than 4 fold increase in fluorescence over time
